Test [1] concerns the target T1, soluble extracellular region of human CD38 fused to a 6-His-tag (human, UniProt P28907 43-300).
T1 construct: Expressed with the murine VJ2C leader; also called human CD38 protein; human CD38 antigen
The test can be described thus: SPR, antibody captured on protein G, CD38 injected. (In general: Surface plasmon resonance follows binding to a sensor surface in real time, without labels.)

In another test the target is human CD38 on cells (human, UniProt P28907 1-300). The test can be described thus: cell-based or functional assay.
The target of test [2] is T2, soluble extracellular region of cynomolgus monkey CD38 antigen fused to a 6-His-tag (cynomolgus monkey, UniProt Q5VAN0 45-301).
T2 construct: also called cynomolgus CD38
In words: SPR.

Test [3] deals with T1, soluble extracellular region of human …. The test can be described thus: SPR.

We go through 4 molecules from patent US20190135918A1 (ICHNOS SCIENCES, published 2019).

Changes are numbered by the printed parent chain. Numbers in names are those of the source.

For orientation: Kd means the constant that tells how readily two partners part at equilibrium.

B1: BEAT CD38-HB7bestfit/CD3 antibody (bispecific antibody, human IgG1, kappa, L234A L235A)
heavy: QVQLQESGPGLVKPSETLSLTCTVSGFSLISYGVHWVRQPPGKGLEWLGVIWRGGSTDYNAAFMSRLTISKDNSKNQVSLKLSSVTAADTAVYFCAKTLITTGYAMDYWGQGTLVTVSSASTKGPSVFPLAPSSKSTSGGTAALGCLVKDYFPEPVTVSWNSGALTSGVHTFPAVLQSSGLYSLSSVVTVPSSSLGTQTYICNVNHKPSNTKVDKKVEPKSCDKTHTCPPCPAPEAAGGPSVFLFPPKPKDTLMISRTPEVTCVVVDVSHEDPEVKFNWYVDGVEVHNAKTKPREEQYNSTYRVVSVLTVLHQDWLNGKEYKCKVSNKALPAPIEKTISKAKGQPREPAVYTLPPSRDELTKNQVKLVCLVTGFYPSDIAVEWESNGQPENNYYTTPPVLDSDGSFSLVSWLNVDKSRWQQGNVFSCSVMHEALHNHYTQKSLSLSPGK
light: DIQLTQSPSSLSASVGDRVTITCRASEDIYNRLAWYQQKPGKAPKLLISGATSLETGVPSRFSGSGSGKDYTLTISSLQPEDFATYYCQQYWSTPTFGQGTKLEIKRTVAAPSVFIFPPSDEQLKSGTASVVCLLNNFYPREAKVQWKVDNALQSGNSQESVTEQDSKDSTYSLSSTLTLSKADYEKHKVYACEVTHQGLSSPVTKSFNRGEC
chain: EVQLVESGGGLVQPGGSLRLSCAASGYTFTRYTMHWVRQAPGKGLEWIGYINPSRGYTYYADSVKGRFTLSTDKSKNTAYLQMSSLRAEDTAVYYCARYYDDHYCLDYWGQGTLVTVSSGGGGSGGGGSGGGGSGGGASDIQLTQSPSSLSASVGDRVTITCRASSSVSYVAWYQQKPGKAPKRWIYDTSKLYSGVPSRFSGSGSGTDYTLTISSLQPEDFATYYCQQWSSNPPTFGQGTKVEIKGGGGTDKTHTCPPCPAPEAAGGPSVFLFPPKPKDTLMISRTPEVTCVVVDVSHEDPEVQFKWYVDGVEVHNAKTKPREEQYNSTFRVVSVLTVLHQDWLNGKEYKCKVSNKALPAPIEKTISKTKGQPREPEVATFPPSREEMTKNQVTLVCLVTGFYPSDIAVEWESSGQPENNYNTDPPLLESDGSFALSSRLRVDKSRWQQGNIFSCSVMHEALHNRFTQKSLSLSPGK
notes: Anti-CD38 FAB arm and anti-CD3 epsilon scFv BEAT heavy chain (third chain)
B1: in test [1], the Kd amounted to 3.2 nM. Moreover, in the test with human CD38 on cells, the “T cell redirected killing of RPMI 8226 myeloma cells, RDL-FACS method, EC50” value turned out to be 0.0022 nM.

B2: BEAT CD38-HB7bestfit/CD3(SP34) antibody (bispecific antibody)
heavy: QVQLQESGPGLVKPSETLSLTCTVSGFSLISYGVHWVRQPPGKGLEWLGVIWRGGSTDYNAAFMSRLTISKDNSKNQVSLKLSSVTAADTAVYFCAKTLITTGYAMDYWGQGTLVTVSSASTKGPSVFPLAPSSKSTSGGTAALGCLVKDYFPEPVTVSWNSGALTSGVHTFPAVLQSSGLYSLSSVVTVPSSSLGTQTYICNVNHKPSNTKVDKKVEPKSCDKTHTCPPCPAPEAAGGPSVFLFPPKPKDTLMISRTPEVTCVVVDVSHEDPEVQFKWYVDGVEVHNAKTKPREEQYNSTFRVVSVLTVLHQDWLNGKEYKCKVSNKALPAPIEKTISKTKGQPREPAVYTLPPSREEMTKNQVKLVCLVTGFYPSDIAVEWESSGQPENNYYTTPPMLDSDGSFSLVSWLNVDKSRWQQGNIFSCSVMHEALHNRFTQKSLSLSPGK
light: B1 light
chain: not shown
In the case of B2, the “T cell redirected killing of Daudi cells, RDL-FACS method, EC50” value with human CD38 on cells turned out to be 0.0018 nM.

B3: humanized 9G7 best-fit antibody (antibody, human IgG1, kappa, V domains shown)
VH: QVTLKESGPTLVKPTQTLTLTCTFSGLSLSTSGKGVGWIRQPPGKALEWLAHIWWDDDKRYNPALKSRLTITKDTSKNQVVLTMTNMDPVDTATYYCARIELGRSYVMDYWGQGTLVTVSS
VL: DIQMTQSPSSLSASVGDRVTITCQASQDVITSVAWYQQKPGKAPKLLIYSASYRYTGVPSRFSGSGSGTDFTFTISSLQPEDIATYYCQQHYTIPLTFGQGTKLEIKR
notes: Human IgG1; light chain carries the F36Y back mutation (Kabat); also called 9G7 best-fit F36Y humanized variant
In the case of B3, the Kd in test [1] stood at 0.5 nM; in test [2], 3.2 nM. Moreover, in test [3], the “fold improvement of affinity over the first prototype” value was 2 fold.

B4: humanized 9G7 best-framework antibody (antibody, human IgG1, kappa, V domains shown)
VH: EVQLVESGGGLVQPGGSLRLSCAFSGLSLSTSGKGVGWIRQAPGKGLEWLAHIWWDDDKRYNPALKSRLTISKDTSKNTVYLQMNSLRAEDTAVYYCARIELGRSYVMDYWGQGTLVTVSS
VL: B3 VL with Q24R, Y36F, F73L, I83F, L104V
notes: Human IgG1
Take B4: the results for the Kd in test [1] and in test [2] were 0.4 nM and 1 nM, respectively.
